Assay results published in US20260077041A1.

What was measured:
IL-17A (human) = IL-17A (human) (UniProt Q16552); assay: SPR (Biacore T200), drug captured on protein A chip, IL-17A as analyte, multi-cycle
TNFα (human) = TNFα (human) (UniProt P01375); assay: SPR (Biacore T200), drug captured on protein A chip, TNFα as analyte, multi-cycle
TNFα (human), sequence (P01375 77-233 limits assumed): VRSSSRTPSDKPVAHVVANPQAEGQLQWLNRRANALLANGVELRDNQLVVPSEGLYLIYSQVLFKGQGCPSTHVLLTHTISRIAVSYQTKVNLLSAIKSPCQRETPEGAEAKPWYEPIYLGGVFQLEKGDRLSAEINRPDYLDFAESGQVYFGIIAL

IL-17A (human), sequence (Q16552 24-155 limits assumed): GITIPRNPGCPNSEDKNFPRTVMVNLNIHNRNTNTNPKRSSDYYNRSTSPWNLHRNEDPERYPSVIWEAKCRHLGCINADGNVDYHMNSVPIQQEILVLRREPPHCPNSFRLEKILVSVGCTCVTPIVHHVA

Row | Substance | Kd (IL-17A (human)) [nM] | koff (IL-17A (human)) [s⁻¹] | kon (IL-17A (human)) [M⁻¹ s⁻¹] | Kd (TNFα (human)) [nM] | koff (TNFα (human)) [s⁻¹] | kon (TNFα (human)) [M⁻¹ s⁻¹]
1 | Cosentyx (antibody) | 0.0787 | 6.12e-05 | 778000 |  |  | 
2 | Humira (antibody) |  |  |  | 0.16 | 0.00015 | 941000
